Results as given in patent US20240109958.

How the values were obtained:
[1] = molecular target: Ub vinyl sulfone HA-tagged probe (Ub-VS-HA; Cat #U-212, Boston Biochem) (UniProt P0CG48)
[2] = molecular target: lysine-less catalytically inactive UCHL1 (UniProt P09936)
[3] = molecular target: lysine-less catalytically inactive UCHL5 (UniProt Q9Y5K5)

| Substance | modification by the suicide probe Ub-VS (immunoblot) [1] | in vitro ubiquitination assay with purified proteins (immunoblot) [2] | in vitro ubiquitination assay with purified proteins (immunoblot) [3] |
| --- | --- | --- | --- |
| N-terminally ubiquitinated mimetic Ub^G76V_UCHL5 | Ub^G76V_UCHL5 rapidly reacted with Ub-VS | – | – |
| N-terminally ubiquitinated mimetic Ub^G76V_UCHL1 | Ub^G76V_UCHL1 remained largely unmodified | – | – |
| UBE2W (Cat #E2-740, Boston Biochem) | – | UBE2W can monoubiquitinate lysine-less versions of both UCHL1 and UCHL5 | UBE2W can monoubiquitinate lysine-less versions of both UCHL1 and UCHL5 |
